Tests used:
[1] = biological target: glutathione Sepharose-4B; assay: pull-down from lysate with glutathione Sepharose-4B, SDS-PAGE densitometry, relative to GST on Sepharose-4B
[2] = biological target: glutathione (GSH) immobilized on dendron-modified controlled pore glass, sample E3 (Fmoc-(9)acid dendron); assay: pull-down from lysate with E3 beads, SDS-PAGE densitometry, relative to GST on E3
[3] = biological target: glutathione (GSH) immobilized on dendron-modified controlled pore glass, sample E1 (Fmoc-(3)acid dendron); assay: pull-down from lysate with E1 beads, SDS-PAGE densitometry, relative to GST on E1
[4] = biological target: glutathione (GSH) immobilized on dendron-modified controlled pore glass, sample E1 (Fmoc-(3)acid dendron); assay: GST captured on beads, sample weight adjusted to the same number of GSH, SDS-PAGE densitometry
[5] = biological target: glutathione (GSH) immobilized on dendron-modified controlled pore glass, sample E3 (Fmoc-(9)acid dendron); assay: as above

| binding efficiency (relative, GST on the same matrix set at 100%) [1] [%] | relative binding capacity (GST on the same matrix set at 100%) [2] [%] | relative binding capacity (GST on the same matrix set at 100%) [3] [%] | Percentage of ligand utilization (%) [4] [%] | Percentage of ligand utilization (%) [5] [%] | Substance |
| --- | --- | --- | --- | --- | --- |
| 17 | 23 | 22 | – | – | GST-Munc-18 fragment (98 kDa) (from UniProt P08515 1-218) |
| 104 | 85 | 92 | – | – | GST-PX^p47 (41 kDa), GST fused to the PX domain of p47^phox (from UniProt P08515 1-218) |
| – | – | – | 29 | 31 | glutathione S-transferase (GST) (28 kDa) (from UniProt P08515 1-218) (enzyme) |

— patent publication US20050037413A1
